Results published in paper PMC11638070 (Nature Structural & Molecular Biology, 2024).
Changes are numbered by the printed parent chain. Names may count otherwise. Blank lines part the entries; values can stand above or below the binder they belong to.

What was measured:
[1] = target: T1, mitochondrial heat shock protein 60 V72I (mtHsp60^V72I) (human, UniProt P10809 53-573, V72I); assay: SEC-MALS; mtHsp60 samples 17 µM monomer, without ATP; Shodex Protein KW-804, room temperature, 20 mM HEPES pH 7.5, 100 mM KCl, 10 mM MgCl2; heptamer to monomers; details: both partners purified
[2] = target: T1, mitochondrial heat shock protein 60 …; assay: cryo-EM structure; mtHsp60^V72I 0.2-0.6 mg/ml in ATPase buffer without detergent, 1 mM ATP; details: both partners purified
mtHsp60 Y201A = mtHsp60 Y201A (human, UniProt P10809 53-573, Y201A); assay: SEC; analytical SEC of each protein alone (mtHsp60 samples 17 µM monomer); Superdex 200 Increase 3.2/300, room temperature, 20 mM HEPES pH 7.5, 100 mM KCl, 10 mM MgCl2; details: both partners purified
[3] = target: the molecule itself; assay: as above

stoichiometry N [1]: 7
stoichiometry N [2]: 14
B1: mitochondrial heat shock protein 60 V72I (mtHsp60^V72I) (natural protein)
chain: AKDVKFGADARALMLQGVDLLADAVAVTMGPKGRTVIIEQSWGSPKVTKDGVTVAKSIDLKDKYKNIGAKLIQDVANNTNEEAGDGTTTATVLARSIAKEGFEKISKGANPVEIRRGVMLAVDAVIAELKKQSKPVTTPEEIAQVATISANGDKEIGNIISDAMKKVGRKGVITVKDGKTLNDELEIIEGMKFDRGYISPYFINTSKGQKCEFQDAYVLLSEKKISSIQSIVPALEIANAHRKPLVIIAEDVDGEALSTLVLNRLKVGLQVVAVKAPGFGDNRKNQLKDMAIATGGAVFGEEGLTLNLEDVQPHDLGKVGEVIVTKDDAMLLKGKGDKAQIEKRIQEIIEQLDVTTSEYEKEKLNERLAKLSDGVAVLKVGGTSDVEVNEKKDRVTDALNATRAAVEEGIVLGGGCALLRCIPALDSLTPANEDQKIGIEIIKRTLKIPAMTIAKNAGVEGSLIVEKIMQSSSEVGYDAMAGDFVNMVEKGIIDPTKVVRTALLDAAGVASLLTTAEVVVTEIPKEEKDPGMGAMGGMGGGMGGGMF
modifications: heptamer in apo state; ATP/Mg2+/K+ gives double-ring tetradecamer; SNA tag scar left out / heptamer in apo state; ATP/Mg2+/K+ gives double-ring tetradecamer; SNA tag scar left out

stoichiometry N (mtHsp60 Y201A): 7
B2: mtHsp60 Y201A (natural protein)
chain: B1 chain with I72V, Y201A
modifications: at least partly heptameric by SEC; mature numbering + 26 = precursor; SNA tag scar left out / at least partly heptameric by SEC; mature numbering + 26 = precursor; SNA tag scar left out

B3: mitochondrial malate dehydrogenase labelled with fluorescein isothiocyanate (FITC-mtMDH) (enzyme, human, UniProt P40926 25-338, looked up)
chain: AKVAVLGASGGIGQPLSLLLKNSPLVSRLTLYDIAHTPGVAADLSHIETKAAVKGYLGPEQLPDCLKGCDVVVIPAGVPRKPGMTRDDLFNTNATIVATLTAACAQHCPEAMICVIANPVNSTIPITAEVFKKHGVYNPNKIFGVTTLDIVRANTFVAELKGLDPARVNVPVIGGHAGKTIIPLISQCTPKVDFPQDQLTALTGRIQEAGTEVVKAKAGAGSATLSMAYAGARFVFSLVDAMNGKEGVVECSFVKSQETECTYFSTPLLLGKKGIEKNLGIGKVSSFEEKMISDAIPELKASIKKGEDFVKTLK
modifications: FITC (fluorescein isothiocyanate) label, sites not stated
notes: mitochondrial malate dehydrogenase (mtMDH), human; bacterial expression vector Addgene plasmid no; 38792; Used folded (elutes as a dimer) or chemically denatured (6 M guanidine HCl, 10 mM DTT, 1 h); the two states are told apart by the assays; also called FITC-mtMDH^denat (guanidine-denatured form); source: E. coli Rosetta 2(DE3)pLysS, purified (HisTrap, SEC), labelled with FITC
stoichiometry N [3]: 2
